Like-named read-outs stand apart in the source and are kept apart here. Where no end group is shown, it is not given here.
Key:
[1] = tested on: calcitonin oligomer; conditions: cited from earlier work
[2] = cited from earlier work
[3] = 4 °C, 100 mM DCl (pH 1); cited from earlier work
[4] = Pyrene fluorescence II/IIII ratio assay for micelle-like oligomer formation; type: physicochemical; conditions: pH 7.3, 20 mM phosphate buffer, 50 mM NaCl, 1 μM pyrene, 25 °C

## O=C(O[C@@H]1Cc2c(O)cc(O)cc2O[C@@H]1c1cc(O)c(O)c(O)c1)c1cc(O)c(O)c(O)c1 [EGCG]
[1]
  effect on formation of the calcitonin oligomer: completely abolish

## Aβ1–40: amyloid-beta peptide 1–40, linked to Alzheimer's disease
[2]; 10 mM phosphate buffer, pH 7.3
  critical concentration: 8 µM
[2]; 0.1 M Tris, pH 7.4 20 °C
  critical concentration: 25 µM
[2]; pyrene and surface tension studies
  critical concentration for micelle-like oligomers: 17 µM
[3]
  length of spherocylindrical micelle structures (SANS): 11 nm
  radius of spherocylindrical micelle structures (SANS): 2.4 nm

## hIAPP1–19: N-terminal 1–19 fragment of hIAPP, significantly less amyloidogenic than the full-length peptide (KCNTATCATQRLANFLVHS; ends and bridges not checked; cysteine pairing not given here; UniProt P10997 34-52, looked up, fragment)
[4]
  micelle-like oligomer formation over the concentration range tested (pyrene II/IIII): did not form oligomers

— publication PMC11444341 (The journal of physical chemistry. B, 2015)
